Results on 22 molecules are retold here after patent US20260234738A1 (Regeneron, published 2026).

Residue numbers refer to the chain shown, from its start. Several values for one entry are separate records, joined by “and”; a condition that tells them apart may be missing. Equal entries are not always repeated.

One may read the IC50 as the midpoint of a concentration-inhibition curve. The low end stands for greater potency, the high end for weaker potency.

Test [1] deals with SARS-COV-2 Spike protein receptor binding domain (amino acids Arg319-Phe541) expressed with the Fc p (SARS-CoV-2).
For test [2], the target named is SARS-CoV-2 Spike Protein (RBD) (R319-F541).mFc (SARS-CoV-2). The test can be described thus: Luminex beads, supernatant.
Test [3] concerns the target Bt-SARS-CoV-2 Spike Protein (RBD) (R319-F541).mFc (SARS-CoV-2). Put plainly: Luminex beads, supernatant.
Test [4] concerns the target SARS-CoV-2 Spike Protein (RBD) (R319-F541).hFc (SARS-CoV-2). Put plainly: Luminex beads, supernatant.

B1: mAb10985 (antibody, V domains shown)
VH: EVQLVESGGGLVQPGRSLRLSCAASGFTFDDYAMHWVRQAPGKGLEWVSGISWNRGSIGYADSVKGRFTISRDNAKNSLYLQMSSLRAEDTALYYCAKDGERWDSVVVPSARNGMDVWGQGTTVTVSS
VL: QSVLTQPPSVSGAPGQRVTISCTGSSSNIGAGYDVHWYQQLPGTAPKLLIYGNSNRPSGVPDRFSGSKSGTSASLAITGLQAEDEADYYCQSYDSSLSGSYVFGTGTKVTVLG
For B1, the IC50 in test [1] was 0.0696 nM and 0.0411 nM.

B2: mAb10986 (antibody, V domains shown)
VH: EVQLVESGGGLVQPGGSLRLSCAASEFTVSSNYMSWVRQAPGKGLEWVSVIYSGGSTFYADSVKGRFTISRDNSKNTLYLQMNSLRAEDTAVYYCARALPYGDLHFDYWGQGTLVTVSS
VL: B1 VL with A31T, S54T, G99D
For the molecule B2, the MFI in test [2] stood at 28400 MFI; in test [3] it was 15900 MFI.

B3: mAb10986 (antibody, V domains shown)
VH: B2 VH
VL: B1 VL with A31T, S54T, G99D
In turn, B3 displayed an IC50 in test [1] of 0.0754 nM.

B4: mAb10989 (antibody, V domains shown)
VH: QVQLVQSGAEVKKPGASVKVSCKASGYIFTGYYMHWVRQAPGQGLEWMGWINPNSGGANYAQKFQGRVTLTRDTSITTVYMELSRLRFDDTAVYYCARGSRYDWNQNNWFDPWGQGTLVTVSS
VL: QSALTQPASVSGSPGQSITISCTGTSSDVGTYNYVSWYQQHPGKAPKLMIFDVSNRPSGVSDRFSGSKSGNTASLTISGLQAEDEADYYCSSFTTSSTVVFGGGTKLTVLG
For the molecule B4, the IC50 in test [1] was 0.0591 nM and 0.0428 nM.

B5: mAb10921 (antibody, V domains shown)
VH: EVQLVESGGGLVQPGGSLRLSCAASGITVSSNYMSWVRQAPGKGLEWVSVIYSGGSTFYADSVKGRFTISRHNSKNTLYLQMNSLRAEDTAVYYCARERNFDAFDIWGQGTMVTVSS
VL: DIQMTQSPSSVSASVGDRVTITCRASQGISSWLAWYQQKPGKAPKLLIYAASSLQSGVPSRFSGSGSGTDFTLTISSLQPEDFATYYCQQANSFPLFTFGPGTKVDIKR
Take B5: the MFI in test [2] turned out to be 19400 MFI; in test [3], 11300 MFI; in test [4], 22300 MFI.

B6: mAb10915 (antibody, V domains shown)
VH: EVQLVESGGGLVQPGGSLRLSCAASGFTVSSNYMNWVRQAPGKGLEWVSVIYSGGSTFYADSVKGRFTISRHNSKNTLYLQMNSLRPEDTAVYYCARDLGGYFDYWGQGTLVTVSS
VL: not shown
Consider B6, for which the MFI in test [2] was found to be 31800 MFI; in test [3], 20100 MFI; in test [4] it was 32400 MFI.

B7: mAb10923 (antibody, V domains shown)
VH: QVQLVQSGAEVKKPGASVKVSCKASGYTFINYYIHWVRQAPGQGLEWMGWINPNSGGTNYAQKFQGRVTMTRDTSISTAYMELSRLRSDDTAVYYCAIITIFGVVTWFDPWGQGTLVTVSS
VL: not shown
Take B7: the MFI in test [2] stood at 37400 MFI; in test [3] it was 19600 MFI; in test [4] it was 37800 MFI.

B8: mAb10914 (antibody, V domains shown)
VH: EVQLVESGGGLVQPGGSLRLSCAASGLIVSRNYMIWVRQAPGKGLEWVSVIYSGGSTFYADSVKGRFTISRHNSKNTLYLQMNSLRAEDTAVYYCARDLGTGGMDVWGQGTTVTVSS
VL: DIQLTQSPSFLSASVGDRVTITCWASQGISSYLAWYQQKPGKAPKLLIYAASTLQSGVPSRFSGSGSGTEFTLTISSLQPEDFATYYCQQLNSYPLTFGGGTKVEIKR
Consider B8, for which the MFI was 30700 MFI in test [2], 16000 MFI in test [3] and 30500 MFI in test [4].

B9: mAb11008 (antibody, V domains shown)
VH: EVQLVESGGGLVQPGGSLRLSCAASGFTVSSNYMTWVRQAPGKGLEWVSVIYSGGSTFYADSVKGRFTISRHNSENTLYLQMNSLRAEDTAVYYCARDLAAAGTDYWGQGALVTVSS
VL: B8 VL with E81D, Q90H, P95L, L96Y, G100Q, V104L
Molecule B9 displayed a 50% inhibitory concentration (IC50) in test [1] of 1.49 nM.

B10: mAb11006 (antibody, V domains shown)
VH: B6 VH with T28I, S31R, N35S, R86K, P87A, D98E, G100R
VL: B8 VL with Q90L, L96Y, G100Q, V104L
B10 had an IC50 in test [1] of 0.22 nM.

B11: mAb10936 (antibody, V domains shown)
VH: QVQLVESGGGVVQPGRSLRLSCAASGFTFRNYGMHWVRQAPGKGLEWVSVIWYDGSNRYYADSVKGRFTISRDTSKNTLYLQMNSLRAEDTAVYYCARDPPITGTTGGDAFDIWGQGTMVTVSS
VL: not shown
In the case of B11, the MFI in test [2] is 33700 MFI; in test [3], 21600 MFI; in test [4], 33900 MFI.

B12: mAb10998 (antibody, V domains shown)
VH: EVQLVESGGGLVHPGGSLRLSCAASGLTVSSNYMSWVRQAPGKGLEWVSVIYSGGSTYYADSVKGRFTISRHNSKNTLFLQMNSLRAEDTAVYYCARDRPITGTTLDVWGQGTTVTVSS
VL: DIQMTQSPSSLFASVGDRVTITCRASQSISSYLNWYQQKPGKAPKLLIYAASSLQSGVPSRFSGSGSGTDFTLTISSLQPEDFAFYYCQQTYSTPPITFGQGTRLEIKR
In the case of B12, the IC50 in test [1] turned out to be 4.3 nM.

B13: mAb10939 (antibody, V domains shown)
VH: EVQLVESGGGLVQPGGSLRLSCAASGLTVSSNYMNWVRQVPGKGLEWVSVIYSGGSKFYVDSVKGRFTISRHNSKNTLYLQMNSLRPEDTAVYYCTRDAQYYGMDVWGQGTTVTVSS
VL: B12 VL with F12S, S31T, N34H, K42E, F85T, T91S, I97E, T98I, R104K
Regarding B13, the MFI in test [2] amounted to 33900 MFI; in test [3] it was 18700 MFI; in test [4] it was 32900 MFI.

B14: mAb10932 (antibody, V domains shown)
VH: EVQLVESGGGLVQSGGSLRLSCAASGLTVSSNYMSWVRQAPGKGLEWVSVIYSGGSTFYSDSVKGRFTISRHNSKNTLYLQMNSLRAEDTAVYYCARARGDAFDIWGQGTMVTVSS
VL: not shown
As to B14, the MFI in test [2] stood at 30600 MFI; in test [3] it was 17700 MFI; in test [4], 30600 MFI.

B15: mAb10913 (antibody, V domains shown)
VH: EVQLVESGGGLVQPGGSLRLSCAASGFTFRNYEMNWVRQAPGKGLEWVSYITSSGSTMYYADSVKGRFTISRDNAKNSLYLQMNSLRAEDTAVYYCARDGFYYYYAMDVWGQGTTVTVSS
VL: QSVLTQPPSVSAAPGQKVTISCSGSSSNIGNNYVSWYQQLPGTAPKLLIYDNNKRPSGIPDRFSGSKSGTSATLGITGLQTGDEADYYCGTWDSSLSVGRVFGTGTKVTVLG
As to B15, the MFI turned out to be 33000 MFI in test [2], 16600 MFI in test [3] and 31900 MFI in test [4].

B16: mAb10937 (antibody, V domains shown)
VH: QITLKESGPTLVKPTQTLTLTCTFSGFSLSTNVVGVGWIRQPPGKALEWLALIYWNDDKRYSPSLKSRLTITKDTSKNQVVLTMTNMDPVDTATYYCAHGPTGDYFDYWGQGTLVTVSS
VL: not shown
As for B16, the MFI in test [2] was determined as 34200 MFI; in test [3], 19700 MFI; in test [4] it was 34600 MFI.

B17: mAb10930 (antibody, V domains shown)
VH: EVQLVESGGGLVQPGRSLRLSCAASGFTFDDYAMYWVRQAPGKGLEWVSGISWNSGSIGYADSVKGRFTISRDNAKNSLYLQMNSLRAADTALYYCAKDKDWNSRGYYYYGMDVWGQGTTVTVSS
VL: not shown
B17: the results for the MFI in test [2], in test [3] and in test [4] were 28600 MFI, 16600 MFI and 28900 MFI, respectively.

B18: mAb10934 (antibody, V domains shown)
VH: not shown
VL: DIQMTQSPSSLSASVGDRVTITCQASQDIWNYINWYQQKPGKAPKLLIYDASNLKTGVPSRFSGSGSGTDFTFTISSLQPEDIATYYCQQHDDLPPTFGQGTKVEIKR
Take B18: the MFI came out at 34300 MFI in test [2], 21200 MFI in test [3] and 35800 MFI in test [4].

B19: mAb10938 (antibody, V domains shown)
VH: EVQLVESGGGLVQPGGSLRLSCAVSGFTVSSNYMSWVRQAPGKGLEWVSLIYSGGSTFYADSVKGRFTISRHNSKNTLYLQMNSLRAEDTAVYYCAREGGYSYDYNYWGQGTLVTVSS
VL: B18 VL with W30R, I33L, K55E, S65I, H91Y, D93N, P96I, K103R, V104L
On to B19, for which the MFI in test [2] came out at 30500 MFI; in test [3] it was 17200 MFI; in test [4] it was 29600 MFI.

B20: mAb10935 (antibody, V domains shown)
VH: EVQLVESGGGLVQPGGSLRLSCAASGFTVSSNYMSWVRQAPGKGLEWVSLIYSGGSTYYADSVKGRFTISRHNSKNTLYLQMNSLRSEDTAVYYCARVPLGDYYYGMDVWGQGTTVTVSS
VL: B18 VL with W30N, N31K, I33L, K55E, H91S, D93N, P96L, Q100G
For B20, the MFI in test [2] worked out at 35900 MFI; in test [3], 19300 MFI; in test [4], 35600 MFI.

B21: mAb11010 (antibody, V domains shown)
VH: QVQLVESGGGVVQPGRSLRLSCAASGFTFSSYGMHWVRQAPGKGLEWVAVISYDGSYKYYADSVKGRFTISRDNSKNTLYLQMNSLRAEDTAVYYCAIDGGTVTTIFDYWGQGTLVTVSS
VL: not shown
In the case of B21, in test [1], the IC50 was determined as 0.147 nM.

B22: mAb10920 (antibody, V domains shown)
VH: QVQLVESGGGVVQPGRSLRLSCAASGFTFSYYGMHWVRQAPGKGLEWVAVIWYDGSNKFYADSVKGRFTISRDNSKNTLYLQMNSLRAEDTAVYYCAAARPGYYYGMDVWGQGTTVTVSS
VL: DIQMTQSPSSLSASVGDRVTITCRASQGISNYLAWFQQKPGKAPNSLIYAASSLQRGVPSKFSGSGSGTDFTLTISSLQPEDFATYYCQQYNSYPRTFGQGTKVEIKR
On to B22, for which the values for the MFI in test [2], in test [3] and in test [4] were 36400 MFI, 20300 MFI and 36800 MFI, respectively.
